Three molecules from patent US10669350B2, “Antigen-binding constructs that bind to and inhibit catalase and/or superoxide dismutase as well as pharmaceutical compositions containing them for tumor therapy” (priority 2015, dated 2020) can be followed below.

Entries after “also recorded” stand apart in the source; their conditions may differ.

In experiment [1] the target is T1, human SOD1 (Homo sapiens, UniProt P00441). Kind of experiment: ELISA selection of clones binding to human SOD1. An excerpt:
The preparation was by immunizing alpacas with human SOD1 (SOD1=Cu/ZnSOD [EC 1.15.1.1] purified from human erythrocytes, obtained from Sigma (Schnelldorf), catalogue number S 9636) under supervision of a veterinary, obtaining RNA from the B cells of the animals, reverse transcription, cloning in E. coli and isolation via the phage display technology. […] In a second run, by employing the cell culture system described by Heinzelmann and Bauer (Multiple protective functions of catalase against intercellular apoptosis-inducing ROS signaling of human tumor cells, Biol. Chem. 391, 675-693, 2010) it was checked which of the single domain VHH fragments binding to SOD actually results in an inhibition of SOD, what is expressed in the tumor system used as ROS-dependent apoptosis induction in the cells, since by the inhibition of SOD the concentration of free superoxide anions dramatically increases due to the absence of the enzymatic dismutation and results in a parallel indirect inhibition of catalase. In the following, this is expressed as ROS-dependent apoptosis induction. In a further control trial the specific inhibition of SOD by recombinant single domain VHH fragments was verified by the fact that the increasing effect of these fragments on apoptosis induction by exogenously added HOCl was examined, as described in Bauer 2013 (HOCl-dependent singlet oxygen and hydroxyl radical generation modulate and induce apoptosis of malignant cells. Anticancer Res 33: 3589-3602, 2013).
On the technique in general: An ELISA detects its analyte on a solid surface through an enzyme-linked reagent.

In experiment [2] the target is T1, human SOD1. Kind of experiment: Check for inhibition (neutralization) of SOD, ROS-dependent apoptosis induction and HOCl control trial. The experiment is classed as cell-based. More on the design: endogenous in cells; host or cells: MKN-45 human gastric carcinoma cells. The source says:
Thus, the inhibition of the SOD mediated by single domain VHH or Fab fragments (comparison) can be determined by the fact that the apoptosis induction of tumor cells by exogenously added HOCl is employed as the test system. HOCl in a concentration depending manner induces apoptosis that is based on the interaction between HOCl and superoxide anions that results in the formation of aggressive hydroxyl radicals (Bauer G. HOCl-dependent singlet oxygen and hydroxyl radical generation modulate and induce apoptosis of malignant cells. Anticancer Res 33: 3589-3602, 2013). […] That is, the neutralizing effect of single domain VHH or Fab fragments can be determined by checking whether the inhibition of the apoptosis is abolished again by the single domain VHH or Fab fragments to be tested. The quantitative employment of said test system requires linking several simple steps the skilled person is familiar with. In the first step the concentration of commercially available HOCl (or sodium hypochlorite that sufficiently forms HOCl in medium) is determined that generates a significant quantifiable apoptosis signal within a reasonable trial time (1-2 hours). […] As soon as the first two steps have been satisfactorily performed there can take place the actual test of the inhibiting effect of the single domain VHH or Fab fragments. For that, selected concentrations of the fragments to be tested are pre-incubated for 20 minutes with the optimal concentration of SOD determined in advance in step #2. Subsequently, said mixture is added to the test cells. Thereafter, HOCl is added and the apoptosis induction is determined. […]
The preparation was by immunizing alpacas with human SOD1 (SOD1=Cu/ZnSOD [EC 1.15.1.1] purified from human erythrocytes, obtained from Sigma (Schnelldorf), catalogue number S 9636) under supervision of a veterinary, obtaining RNA from the B cells of the animals, reverse transcription, cloning in E. coli and isolation via the phage display technology. […] In the following, this is expressed as ROS-dependent apoptosis induction. […]

In experiment [3] the test system is human neuroblastoma line SHEP. Kind of experiment: Standard preparation for apoptosis induction in SHEP cells (percentage of apoptotic cells). Type of experiment: cell-based. On the procedure:
(§1) The experiments shown in FIG. 13-24 were carried out with a standard preparation for the apoptosis induction that is based on the method performed in Heinzelmann and Bauer 2010. The tumor cells used were taken from an optimally growing semi-sealed culture, centrifuged and placed in fresh medium. The test was performed in 96-well cell culture plates with 12 500 MKN-45 cells/100 μl medium or 10 000 SHEP cells/100 μl medium. MKN-45 cells grow in suspension, SHEP cells are adherent. The tests with SHEP cells were started as soon as the cells had grown on. By adding increasing concentrations of single domain VHH fragments that either inhibit catalase or SOD the protection of the tumor cells from their own ROS signaling was annulled so that based on the cell-owned extracellular superoxide anion production the NO/peroxynitrite signal path and the HOCl path (with MKN-45 cells) or in case of the SHEP cells only the NO/peroxynitrite path could start when the cells were incubated at 37° C. The analysis of the signal paths was carried out by the application of inhibitors of the NADPH oxidase (AEBSF), the HOCl scavenger taurine, the peroxynitrite scavenger FeTPPS and the singlet oxygen scavenger histidine. In some experiments for comparison instead of the single domain VHH fragments either recombinant Fab fragments or monoclonal antibodies were applied. This is indicated in the respective illustrations.
Double preparations were examined at the times shown in the text by means of phase contrast reverse microscopy for the percentage of apoptotic cells. Here, the classical apoptosis criteria described and documented in Heinzelmann and Bauer 2010 such as condensation of the nucleus, fragmentation of the nucleus, and membrane blebbing were used. Per single preparation at least 250 randomly selected cells were examined for the presence of apoptosis features.
10 000 cells of the human neuroblastoma line SHEP per 100 μl medium were mixed with the given concentrations of the catalase-neutralizing single domain VHH fragment aCATcb0972, the SOD-neutralizing single domain VHH fragment aSOD0989, the SOD-binding but not neutralizing single domain VHH fragment aSODcb991 and the hybrid molecule aCATaSOD and incubated for 5 hours at 37° C., 5% CO2, before percentages of apoptotic cells were determined.
10 000 cells of the human neuroblastoma line SHEP per 100 μl medium were mixed with the given concentrations of the SOD-neutralizing single domain VHH fragment aSOD0989. Parallel preparations received 20 μM or 100 μM of the NO donor sodium nitroprusside or were incubated without a further additive. After 5 hours at 37° C., 5% CO2 the percentages of apoptotic cells were determined.

Experiment [4] has as its system MKN-45 gastric carcinoma cells. Kind of experiment: Standard preparation for autocrine ROS-controlled apoptosis induction in tumor cells (percentage of apoptotic cells). Type of experiment: cell-based, human. On the procedure: as §1
Double preparations were examined at the times shown in the text by means of phase contrast reverse microscopy for the percentage of apoptotic cells. Here, the classical apoptosis criteria described and documented in Heinzelmann and Bauer 2010 such as condensation of the nucleus, fragmentation of the nucleus, and membrane blebbing were used. Per single preparation at least 250 randomly selected cells were examined for the presence of apoptosis features. […]

In experiment [5] the test system is human colon carcinoma xenotransplant. Kind of experiment: Growth of human colon carcinoma xenotransplant on immunocompromised mice. The experiment is classed as in vivo. On the procedure:
The experiments carried out in FIGS. 28A and 28B and FIG. 29 were carried out by a commercial certified supplier (Oncotest GmbH, Freiburg). Here, xenotransplants of a human colon carcinoma were implanted in suitable mice. After the tumors had grown on and a certain minimum size had been achieved, the therapeutic test was started. aSODcb0989 in the indicated doses (mg/kg body weight) or buffer were intravenously applied twice a week. Also, the tumor sizes were measured twice a week by means of a caliber.

T1 sequence (P00441 2-154 limits assumed): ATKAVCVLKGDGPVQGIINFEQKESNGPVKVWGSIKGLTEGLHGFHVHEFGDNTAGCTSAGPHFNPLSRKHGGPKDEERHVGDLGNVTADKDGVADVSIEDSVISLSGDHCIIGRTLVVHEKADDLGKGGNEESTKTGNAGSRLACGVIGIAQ

B1: aSODcb0987: single domain VHH fragment binding to human SOD1, but not neutralizing; SEQ ID NO: 14 (protein)
VHH: MAQVQLVESGGGIVQPGGSLRLSCVASESISEIDAMYWHRQAPGKERELVAGITNDGTRYYADSVKGRFTISRDNAKSTLYLQMNSLKFEDTAMYYCAALPNPPPGYWGQGTQVTVSSKKKHHHHHH
modifications: SOD binding
Turning to B1, the “binding to human SOD1” value in the experiment with human SOD1 [1] is on record as “bind to human SOD1”. The “neutralization (inhibition) of human SOD1” value (“neutralization (inhibition)” below) with human SOD1 [2] is on record as “do not neutralize it”.

B2: aSODcb0991: single domain VHH fragment binding to human SOD1, but not neutralizing; SEQ ID NO: 16 (protein)
VHH: MAQVQLVESGGGIVQPGGSLRLSCVASESISDIDAMYWHRQAPGKRRELVAGITNDGTEYFADSVKGRFAISRDNTKSSLYLQMNSLKLEDTAMYYCATLPNPPPGYWGQGTQVTVSSKKKHHHHHH
modifications: SOD binding
With B2, the “concentration required for apoptosis-inducing effect relative to the neutralizing single domain VHH fragment” value in experiment [3] (5 hours) is given as 10^6 fold. In experiment [3] (5 hours at 37° C., 5% CO2), the “apoptosis induction in SHEP cells” value was “at high concentrations also achieves an apoptosis-inducing effect; also recorded: weak but significant apoptosis induction”. Further, the “binding to human SOD1” value in the experiment with human SOD1 [1] was “bind to human SOD1”. Also, the “neutralization (inhibition)” value in the experiment with human SOD1 [2] was “do not neutralize it”.

B3: aSODcb0989: single domain VHH fragment that binds to and neutralizes human SOD1; SEQ ID NO: 15 (protein)
VHH: MAQVQLVESGGGLVQSGGSLTLSCTASGFTISNYPMTWVRQAPGKGLEWVSRINSGGDRTLYADSVKGRFTVSRDNARNTMYLQMNNLKPEDTGLYFCADSGAGWRYWGQGTQVTVSSKKKHHHHHH
modifications: SOD binding
As to B3, the “apoptosis induction in the presence of peroxynitrite scavenger FeTPPS” value in experiment [4] (25 μM FeTPPS) is given as “complete inhibition by means of FeTPPS”. Further, the “apoptosis induction in the presence of HOCl scavenger taurine” value in experiment [4] (50 mM taurine) is “disappearance of an inhibition by taurine”. Also, the “apoptosis induction in combination with 0.005 pg/ml of the complementary single domain VHH fragment” value in experiment [4] (3.5 hours, FIG. 18) is recorded as “noteworthy synergistic effect”. Besides, the optimum conc. was found to be 1.2 pg/mL in experiment [4] (Table 1, concentration necessary for optimum apoptosis induction, taken from FIGS. 13A, 13B, 15A, 15B, 20) and 0.35 pg/mL in experiment [4] (Table 2, FIG. 20 experiment, 3.5 hours). Further, in experiment [4] (inhibitor analysis), the “ROS signaling path induced” value is on record as “exclusively via the NO/peroxynitrite path”. Moreover, in the experiment with human SOD1 [1], the “binding to human SOD1” value is listed as “binds to”. The “tumor growth versus control group” value in experiment [5] (0.03 mg/kg intravenously twice a week) is “there does not result a recognizable difference to the controls”; in experiment [5] (0.3 mg/kg intravenously twice a week), “very clearly differs from the control group”; in experiment [5] (0.9 mg/kg intravenously twice a week), “in some animals the growth inhibition is enhanced, whereas in other animals there is caused the contrary”. In addition, the “neutralization (inhibition)” value with human SOD1 [2] is “neutralizes human SOD1”.
